In WO2003050283A2 one finds Absorbtion (450 nm) (absorbance (450 nm)) data, which are given here for two molecules.

Assay [1] addresses chicken lysozyme (chicken) (UniProt P00698).
The target in assay [2] is ELK (3% skim milk powder solution). Kind of assay: ELISA, ELK-coated control well; ~5 ng iMab per well, urea-purified; anti-VSV-HRP. (In general: An ELISA detects its analyte on a solid surface through an enzyme-linked reagent.)
The target of assay [3] is chicken lysozyme (chicken) (UniProt P00698). Kind of assay: ELISA, lysozyme (100 ug/ml) coated well blocked with ELK; ~50 ng iMab per well, urea-purified; anti-VSV-HRP.
Assay [4] has the same target. Kind of assay: ELISA, lysozyme (100 ug/ml) coated well blocked with ELK; ~50 ng iMab per well, purified by heat (60 C) solubilisation; anti-VSV-HRP.

Read-outs that look alike come from different tables or passages of the source.

Sequence of UniProt P00698 (P00698 19-147 limits assumed): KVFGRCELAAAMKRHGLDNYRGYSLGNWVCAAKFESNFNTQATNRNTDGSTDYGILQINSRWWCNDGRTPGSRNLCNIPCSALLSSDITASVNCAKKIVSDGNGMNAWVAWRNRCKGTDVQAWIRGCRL

B1: iMab1200 (designed binder)
chain: HGLPMEKRGNFIVGQNCSLTCPASGYTIGPQCVFNCYFNSALAFSTENMGEWTLDMVFSDAGIYTMCAADSTIYASYYECGHGLSTGGYGYNPVSLGSFWDSP
B1: the figures for the Absorbtion (450 nm) (absorbance (450 nm)) in assay [1] and in assay [2] were 0.061 and 0.04, respectively.

B2: iMab100 (designed binder, not shown: small tags and cut ends)
chain: NVKLVEKGGNFVENDDDLKLTCRAEGYTIGPYCMGWFRQAPNDDSTNVATINMGGGITYYGDSVKERFDIRRDNASNTVTLSMDDLQPEDSAEYNCAGDSTIYASYYECGHGLSTGGYGYDSHYRGQGTDVTVSS
Consider B2, for which the Absorbtion (450 nm) (absorbance (450 nm)) is 0.494 in assay [3] and 0.369 in assay [4].
